Assay [1] deals with T1, human PD-L1-his tag protein (human, UniProt Q9NZQ7 19-238).
T1 construct: also called human PD-L1-His protein; recombinant PD-L1 protein; not shown: his tag
Put plainly: SPR (Biacore T200), mAb captured on Protein A chip, PD-L1-his injected. The protocol:
A serial dilution of human PD-L1-his tag protein was injected over captured antibody for 2 mins at a flow rate of 30 μl/min. The antigen was allowed to dissociate for 480-1500 s. All the experiment were carried out on a Biacore T200. Data analysis was carried out using Biacore T200 evaluation software.

In assay [2] the target is rat PD-L1 protein (rat, UniProt D4AE25 19-239). As to the kind of experiment: ELISA, coated rat PD-L1. (In general: An ELISA detects its analyte on a solid surface through an enzyme-linked reagent.)
Sequence of rat PD-L1 protein (D4AE25 entry or part of it limits assumed): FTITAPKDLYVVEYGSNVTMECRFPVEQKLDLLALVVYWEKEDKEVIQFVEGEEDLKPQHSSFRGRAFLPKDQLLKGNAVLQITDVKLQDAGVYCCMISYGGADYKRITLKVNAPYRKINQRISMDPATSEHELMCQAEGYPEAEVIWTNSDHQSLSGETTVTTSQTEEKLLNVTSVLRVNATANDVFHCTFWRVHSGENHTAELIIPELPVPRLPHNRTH
Assay [3] addresses T2, human PD-L1-Fc protein (human, UniProt Q9NZQ7 19-238).
T2 construct: coating antigen of the ELISAs; also called rhPD-L1-Fc; not shown: Fc
As to the kind of experiment: ELISA, antibody titrated on coated human PD-L1-Fc, OD 450nm; upper left panel (with Hu67F3G7-1 to -6). The protocol:
(§1) To evaluate antigen binding activity, the humanized antibodies were subjected to ELISA test. Briefly, microtiter plates were coated with human PD-L1-Fc protein at 0.5 μg/ml in PBS, 100 μl/well at 4° C. overnight, then blocked with 200 μl/well of 1% BSA. Three-fold dilutions of humanized antibodies starting from 10 μg/ml were added to each well and incubated for 1 hour at 37° C. The plates were washed with PBS/Tween and then incubated with mouse-anti-human IgG Fab antibody conjugated with Horse Radish Peroxidase (HRP) for 1 hour at 37° C. After washing, the plates were developed with TMB substrate and analyzed by spectrophotometer at OD 450 nm.

Assay [4] deals with T2, human PD-L1-Fc protein. Put plainly: ELISA, antibody titrated on coated human PD-L1-Fc, OD 450nm; upper right panel (with Hu67F3G7-7 to -12). The protocol: as §1
Assay [5] has as its target T2, human PD-L1-Fc protein. Put plainly: competition ELISA, coated human PD-L1-Fc, biotin-labeled human PD-1-Fc as competitor. The protocol:
Briefly, microtiter plates were coated with human PD-L1-Fc protein at 0.5 μg/ml in PBS, 100 μl/well at 4° C. overnight, then blocked with 150 μl/well of 1% BSA. […] The plates were washed with PBS/Tween and then incubated with Streptavidin-HRP for 10 mins at 37° C. After washing, the plates were developed with TMB substrate and analyzed by spectrophotometer at OD 450 nm.

For assay [6], the target named is T3, human PD-L1 over-expressed on CHOK1 cells (human, UniProt Q9NZQ7 19-290).
T3 construct: whole, on cells; also called PDL1-CHOK1 cells
T3 sequence (Q9NZQ7 19-290): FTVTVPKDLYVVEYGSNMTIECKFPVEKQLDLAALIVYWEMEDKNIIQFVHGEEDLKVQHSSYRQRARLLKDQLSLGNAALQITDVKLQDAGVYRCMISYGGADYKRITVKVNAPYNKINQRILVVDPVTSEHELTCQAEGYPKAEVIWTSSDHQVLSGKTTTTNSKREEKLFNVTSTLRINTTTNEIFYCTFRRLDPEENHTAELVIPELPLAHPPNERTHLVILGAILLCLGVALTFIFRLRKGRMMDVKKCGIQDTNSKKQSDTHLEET
As to the kind of experiment: flow cytometry (MFI) on PDL1-CHOK1 cells; upper right panel (with the Hu67F3G7 antibodies). The protocol: To evaluate the antigen binding property, the humanized antibodies were analyzed for their binding to PD-L1 overexpressed on mammalian cells by FACS. Briefly, PDL1-CHOK1 cells were firstly incubated with 3-fold serious diluted humanized antibodies starting at 15 μg/ml at 4° C. for 40 mins. After washed by PBS, the Alexa Fluor® 647 AffiniPure Goat Anti-Human IgG (H+L) antibody was added to each well and incubated at 4° C. for 30 mins. The MFI of Alexa Fluor® 647 was evaluated by FACSCanto.

The Kd is the concentration at which binding is half-saturated. A high value points to weaker binding. The term koff denotes the first-order rate constant of dissociation. The low end stands for a long-lived complex, the high end for a short-lived complex. One may read the kon as the rate constant with which the complex forms. By EC50 is commonly meant the concentration that produces a half-maximal response. The low end stands for greater potency, the high end for weaker potency. The term IC50 denotes the concentration that inhibits the measured activity by half. High values mean lower potency, low ones higher potency.

T2 sequence (Q9NZQ7 19-238 limits assumed): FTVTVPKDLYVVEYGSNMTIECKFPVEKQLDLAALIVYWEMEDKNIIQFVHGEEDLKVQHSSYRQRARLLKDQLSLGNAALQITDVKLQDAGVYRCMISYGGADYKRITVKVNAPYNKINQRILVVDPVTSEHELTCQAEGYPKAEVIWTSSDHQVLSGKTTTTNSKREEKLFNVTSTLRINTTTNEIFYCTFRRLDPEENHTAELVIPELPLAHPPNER
T1 sequence (Q9NZQ7 19-238 limits assumed): as above

B1: 67F3G7 chimeric mAb (antibody, V domains shown)
VH: QVKLLQSGAALVKPGASVKMSCKASGYIFTDFWVSWVKQSHEKSLEWIGEIYPNSGVSRYNEKFKGRATMTVDKSTSTAYLELSRLTSEDSAIYYCTKYFGYTYWFGYWGQGTLVTVSS
VL: DTVLTQSPALAVSLGQRITISCRASKSVSTYMHWYQQRSGLQPKLLIYSASHLESGVPSRFSGSGSGTDFTLTIDPVEADDIANYYCQQSNELPVTFGSGTKLEIK
notes: chimeric mAb of the hybridoma clone; also called 67F3G7-chimera
In the case of B1, the affinity in assay [1], expressed as Kd, was 0.0244 nM. This molecule also came in with a koff in assay [1] of 6.19e-05 s⁻¹. The kon in assay [1] was found to be 2.54e+06 M⁻¹ s⁻¹. The binding result in assay [2] is on record as “no binding (tested: dilutions starting from 10 µg/ml)”. In addition, the EC50 in assay [3] stood at 0.0141 µg/mL; in assay [4], 0.0129 µg/mL; in assay [6] it was 0.0577 nM. This molecule also had an IC50 in assay [5] of 0.14 µg/mL.

(Values after patent publication US20230287125A1 (LEPU BIOPHARMA, published 2023).)
